The text below walks through data of patent publication US20070178531A1 (BIOCHECK, published 2007).

The target in experiment [1] is T1, Mouse Id2: Histidine (mouse, UniProt P41136 1-134, limits assumed).
T1 construct: Fusion protein made in E. coli from vector pGW07; also called m-Id2: His; not shown: His tag
T1 sequence (looked up): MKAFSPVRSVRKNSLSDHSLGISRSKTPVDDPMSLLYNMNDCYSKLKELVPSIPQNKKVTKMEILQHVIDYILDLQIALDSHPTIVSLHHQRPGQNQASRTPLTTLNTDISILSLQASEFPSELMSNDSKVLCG
In words: ELISA, Ab 0.100 µg/ml.

The target in experiment [2] is T2, Mouse Id1: Histidine (mouse, UniProt P20067-2 1-148, limits assumed).
T2 construct: Fusion protein made in E. coli from vector pGW07; also called m-Id1-His; not shown: His tag
T2 sequence (looked up): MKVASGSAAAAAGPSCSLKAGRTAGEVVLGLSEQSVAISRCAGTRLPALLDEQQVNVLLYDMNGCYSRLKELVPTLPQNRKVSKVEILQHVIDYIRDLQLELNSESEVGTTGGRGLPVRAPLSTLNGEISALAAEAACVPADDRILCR
Kind of experiment: ELISA, Ab 0.050 µg/ml. The procedure: (§1) The rabbit monoclonal anti-human Id3 (clone #3-3) and the rabbit monoclonal anti-mouse/human Id3 (clones #6-1, 16-1, 17-3, and 42-1) produced in Example 6 were tested reactivity against the following antigens: mouse Id1:His, human Id1:His, mouse Id2:His, human Id2:His, mouse Id3:His, human Id3:His, mouse Id4:His, human Id4:His and GST.
(§2) 1. Microtiter wells (prepared in accordance with Example 6) were coated (0.1 μg/well) with mouse Id1:His, human Id1:His, human Id2:His, human Id3:His, and 1.0 μg/well with GST. [0155] 2. Antibody Diluent: 0.25% (w/v) BSA in 0.015M KPO₄ Buffer, 0.85% (w/v) NaCl, 0.1% (w/v) NaN₃, pH=7.40 [0156] 3. Rabbit monoclonal anti-human Id3 (clone #3-3) prepared in Example 7 was diluted to […] with the antibody diluent. […] 4. Rabbit monoclonal anti-mouse/human Id3 (clones #6-1, 16-1, 17-3, 42-1) prepared in Example 7 was diluted to 0.005, 0.010, 0.025, 0.05, 0.10, 0.25, and 0.50 μg/ml with the antibody diluent. […] 5. Conjugate Diluent: 50% (v/v) which consists of an aqueous solution containing Fetal Bovine Serum in 0.05 M Tris, 1% (v/v) Proclin-300, pH 7.6. [0159] 6. Conjugate: Goat anti-rabbit IgG (H+L)-HRP conjugate. [0160] 7. TMB reagent. […] 8. Stop solution (1 N HCI). Method
(§3) 1. Dispense 100 μL of antibody diluent, diluted rabbit monoclonal human Id3, and mouse/human Id3 hybridoma supernatants into appropriate wells. […] 2. Incubate at room temperature with mechanical shaking at 750 rpm for 90 minutes. [0165] 3. Remove the incubation mixture by flicking plate content into an appropriate waste container followed by rinsing the wells 5 times with distilled water. [0166] 4. Strike the wells sharply onto absorbent paper or paper towels to remove all residual water droplets. [0167] 5. Dispense 100 μL of 1:50,000 Goat Anti-Rabbit IgG-HRP Conjugate Reagent into each well. Gently mix for 5 seconds. [0168] 6. Incubate at room temperature with mechanical shaking at 750 rpm for 90 minutes. [0169] 7. Repeat procedures 3 and 4. [0170] 8. Dispense 100 μL of TMB Reagent into each well. Gently mix for 5 seconds. [0171] 9. Incubate at room temperature with mechanical shaking at 750 rpm for 20 minutes. […] 10.

Experiment [3] deals with T3, Human Id2: Histidine (human, UniProt Q02363 1-134, limits assumed).
T3 construct: Fusion protein made in E. coli from vector pGW07; also called h-Id2: His; not shown: His tag
T3 sequence (looked up): T1 sequence (looked up) with T60S, V131A
In words: ELISA, Ab 0.050 µg/ml. The procedure: as §1, §2, §3

In experiment [4] the target is T1, Mouse Id2: Histidine. Kind of experiment: ELISA, Ab 0.025 µg/ml. How it is done: as §1, §2, §3
In experiment [5] the target is T2, Mouse Id1: Histidine. In words: ELISA, Ab 0.025 µg/ml. The procedure: as §1, §2, §3
Experiment [6] deals with T4, Human Id1: Histidine (human, UniProt P41134 1-155, limits assumed).
T4 construct: Fusion protein made in E. coli from vector pGW07; also called h-Id1: his; not shown: His tag
T4 sequence (looked up): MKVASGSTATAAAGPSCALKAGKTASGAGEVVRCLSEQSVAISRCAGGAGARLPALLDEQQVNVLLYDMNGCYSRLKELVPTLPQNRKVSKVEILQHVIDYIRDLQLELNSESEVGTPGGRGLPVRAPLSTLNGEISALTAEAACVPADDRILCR
Kind of experiment: ELISA, Ab 0.025 µg/ml. The procedure:
as §1, §2, §3

Experiment [7] addresses T3, Human Id2: Histidine. In words: ELISA, Ab 0.025 µg/ml. The procedure: as §1, §2, §3
Experiment [8] has as its target T4, Human Id1: Histidine. Kind of experiment: ELISA on coated wells, summary.
The target in experiment [9] is T3, Human Id2: Histidine. Kind of experiment: ELISA on coated wells, summary.
For the next experiment, the target named is T5, Mouse Id3: Histidine (mouse, UniProt P41133 1-119).
T5 construct: Fusion protein made in E. coli from vector pGW07; also called m-Id3: His; Mouse Id3 (coated wells); not shown: His tag
T5 sequence: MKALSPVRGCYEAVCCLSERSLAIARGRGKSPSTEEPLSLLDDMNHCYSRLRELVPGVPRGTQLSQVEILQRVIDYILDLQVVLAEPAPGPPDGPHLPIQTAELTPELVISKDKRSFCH
In words: ELISA, Ab 0.025 µg/ml. The procedure:
as §1, §2, §3

The target in a further experiment is T6, Human Id3: Histidine (human, UniProt Q02535 1-119 at identity 1.00)).
T6 construct: Fusion protein made in E. coli from vector pGW07; also called h-Id3: His; Human Id3 (coated wells); not shown: His tag
T6 chain: T5 sequence with S31G, S33A, T34A, T105A, K112N
Kind of experiment: ELISA, Ab 0.025 µg/ml. How it is done: as §1, §2, §3

Positions count from the first letter of the chain named.

B1: rabbit monoclonal anti-human Id3, clone #BCH-4/#3-3 (antibody, V domains shown)
VH: QSVEESGGRLVTPGTPLTLTCTVSGIDLSSYAMSWVRQAPGKGLEWIGVIFPSNNVYYASWAKGRFTISKTSTTVDLKITSPTTEDTATYFCASMGAFDSWGPGTLVTVSS
VL: QVLTQTPSPVSAAVGGTVTINCQASQSIYNDNDLAWFQQKPGQPPKLLIYDASTLTSGVPSRFKGSGSGTQFTLTISDLDCDDAATYYCAARYSGNIYGFGGGTEVVVK
notes: Rabbit IgG from a rabbit hybridoma; also called h Id3 MoAb 3-3
As to B1, the A450 amounted to 0.05 A450 in the experiment with Mouse Id2: Histidine [1]; 0.049 A450 with Mouse Id1: Histidine [2]; 0.048 A450 with Human Id2: Histidine [3]; 0.048 A450 in the experiment with Mouse Id2: Histidine [4]; 0.044 A450 in the experiment with Mouse Id1: Histidine [5]; 0.049 A450 in the experiment with Human Id1: Histidine [6]. For the same molecule, in the experiment with Human Id2: Histidine [7], the A450 amounted to 0.044 A450.

B2: rabbit monoclonal anti-mouse/human Id3, clone #BCH-4/#16-1 (antibody, V domains shown)
VH: QSVEESGGRLVTPGTPLTLTCTASGFSLSSYYIHWVRQAPGKALEWIGYISDGGTTYYASWAKGRFTISKTSSTTVDLKMTSLTTEDTATYFCARQGFNIWGPGTLVTVSL
VL: AVLTQTPSPVSAAVGGTVTISCQSSQSVYNNNWLSWFQQKSGQPPKLLIYETSKLESGVPSRFKGSGSGTQFTLTIIDVQCDDAATYYCLGGYWTTSDNNIFGGGTEVVVK
notes: Rabbit IgG from a rabbit hybridoma; also called m/h Id3 MoAb 16-1
In the case of B2, the A450 in the experiment with Mouse Id2: Histidine [1] worked out at 0.055 A450; in the experiment with Mouse Id1: Histidine [2] it was 0.044 A450; with Human Id2: Histidine [3], 0.044 A450; with Mouse Id2: Histidine [4], 0.051 A450; with Mouse Id1: Histidine [5], 0.044 A450; with Human Id1: Histidine [6] it was 0.046 A450. Further, the A450 in the experiment with Mouse Id3: Histidine was 0.953 A450; in the experiment with Human Id2: Histidine [7], 0.045 A450; with Human Id3: Histidine, 0.802 A450. The “Cross-reactivity (%)” value with Human Id1: Histidine [8] and with Human Id2: Histidine [9] was less than 1% each time.

B3: rabbit monoclonal anti-mouse/human Id3, clone #BCH-4/#6-1 (antibody, V domains shown)
VH: B2 VH with S30N, Y31V, A43G, G54D, T56A, Y57R, S60T, D77N
VL: B2 VL with T19S, Y29W, S41P, I77S, I101V
notes: Rabbit IgG from a rabbit hybridoma; also called m/h Id3 MoAb 6-1
With B3, the A450 worked out at 0.055 A450 with Mouse Id2: Histidine [1]; 0.046 A450 in the experiment with Mouse Id1: Histidine [2]; 0.046 A450 with Human Id2: Histidine [3]; 0.048 A450 with Mouse Id2: Histidine [4]; 0.046 A450 in the experiment with Mouse Id1: Histidine [5]; 0.048 A450 with Human Id1: Histidine [6]. Also, the values for the A450 with Mouse Id3: Histidine, in the experiment with Human Id2: Histidine [7] and with Human Id3: Histidine were 1.13 A450, 0.045 A450 and 0.974 A450, respectively. Further, the “Cross-reactivity (%)” value in the experiment with Human Id1: Histidine [8] and in the experiment with Human Id2: Histidine [9] was less than 1% throughout.

B4: rabbit monoclonal anti-mouse/human Id3, clone #BCH-4/#17-3 (antibody, V domains shown)
VH: B2 VH with S30N, Y31V, A43G, G54D, T56A, Y57R, S60T, D77N
VL: B2 VL with T19S, Y29W, S41P, I77S, I101V
notes: Rabbit IgG from a rabbit hybridoma; also called m/h Id3 MoAb 17-3; BCH-3/#17-3
Turning to B4, the A450 in the experiment with Mouse Id2: Histidine [1] was 0.057 A450; in the experiment with Mouse Id1: Histidine [2], 0.048 A450; with Human Id2: Histidine [3] it was 0.049 A450; in the experiment with Mouse Id2: Histidine [4] it was 0.05 A450; with Mouse Id1: Histidine [5] it was 0.045 A450; with Human Id1: Histidine [6], 0.047 A450. The A450 was determined as 1.4 A450 with Mouse Id3: Histidine, 0.054 A450 in the experiment with Human Id2: Histidine [7] and 1.27 A450 with Human Id3: Histidine. Also, the “Cross-reactivity (%)” value in the experiment with Human Id1: Histidine [8] and in the experiment with Human Id2: Histidine [9] was less than 1% each time.

B5: rabbit monoclonal anti-mouse/human Id3, clone #BCH-4/#42-1 (antibody, V domains shown)
VH: B2 VH
VL: B2 VL with T95S
notes: Rabbit IgG from a rabbit hybridoma; also called m/h Id3 MoAb 42-1
B5: the A450 with Mouse Id2: Histidine [1] is 0.058 A450; with Mouse Id1: Histidine [2] it was 0.05 A450; in the experiment with Human Id2: Histidine [3] it was 0.047 A450; with Mouse Id2: Histidine [4], 0.052 A450; in the experiment with Mouse Id1: Histidine [5], 0.045 A450; in the experiment with Human Id1: Histidine [6], 0.043 A450. Moreover, the A450 came out at 1.58 A450 in the experiment with Mouse Id3: Histidine, 0.071 A450 in the experiment with Human Id2: Histidine [7] and 1.44 A450 in the experiment with Human Id3: Histidine. Further, the “Cross-reactivity (%)” value in the experiment with Human Id1: Histidine [8] and with Human Id2: Histidine [9] was less than 1% each time.
